Data taken from patent US20040132073A1 (Takeda / Millennium, published 2004).
Ends that are not written are not given here.

What was measured:
[1] = molecular target: human G protein-coupled receptor protein hOT7T022 (human, UniProt Q9GZQ6 1-430); experiment: cell-based or functional assay
[2] = molecular target: rat G protein-coupled receptor protein rOT7T022L (rat, UniProt Q9EP86 1-432); experiment: cell-based or functional assay
rat G protein-coupled receptor protein rOT7T022L, sequence (Q9EP86 whole entry): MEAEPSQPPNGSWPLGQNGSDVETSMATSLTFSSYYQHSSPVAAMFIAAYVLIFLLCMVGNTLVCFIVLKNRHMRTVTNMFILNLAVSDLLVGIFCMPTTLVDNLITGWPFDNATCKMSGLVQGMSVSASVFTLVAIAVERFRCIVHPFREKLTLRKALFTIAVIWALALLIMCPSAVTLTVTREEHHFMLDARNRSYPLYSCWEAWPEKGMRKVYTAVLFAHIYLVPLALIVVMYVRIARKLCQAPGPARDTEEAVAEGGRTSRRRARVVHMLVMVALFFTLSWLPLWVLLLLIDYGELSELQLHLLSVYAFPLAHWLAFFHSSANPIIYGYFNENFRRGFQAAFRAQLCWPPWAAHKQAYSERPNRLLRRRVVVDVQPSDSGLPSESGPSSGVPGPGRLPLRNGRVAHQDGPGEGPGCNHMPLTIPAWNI

human G protein-coupled receptor protein hOT7T022, sequence (Q9GZQ6 whole entry): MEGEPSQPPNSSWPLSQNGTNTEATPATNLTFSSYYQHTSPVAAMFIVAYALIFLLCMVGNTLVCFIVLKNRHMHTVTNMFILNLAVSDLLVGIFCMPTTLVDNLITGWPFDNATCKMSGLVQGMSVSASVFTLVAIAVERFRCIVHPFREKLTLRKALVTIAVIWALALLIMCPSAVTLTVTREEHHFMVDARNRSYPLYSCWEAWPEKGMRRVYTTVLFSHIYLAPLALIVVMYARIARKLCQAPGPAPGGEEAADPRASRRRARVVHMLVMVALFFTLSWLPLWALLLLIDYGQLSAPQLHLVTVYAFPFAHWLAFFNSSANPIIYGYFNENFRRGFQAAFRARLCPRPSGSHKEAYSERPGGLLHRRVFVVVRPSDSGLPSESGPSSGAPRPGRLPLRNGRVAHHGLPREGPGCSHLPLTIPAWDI

| Binder | ED50, inhibition of the increased cAMP level in the cells by the forskolin treatment [1] [nM] | IC50 of cAMP production suppression (forskolin-stimulated cells, cAMP EIA) [2] [nM] |
| --- | --- | --- |
| PQRF-NH2 [PQRFamide (peptide shown by Pro-Gln-Arg-Phe-NH2)] | ≥ 1000 | – |
| MPHSFANLPLRF-NH2 [peptide MPHSFANLPLRFamide (SEQ ID NO: 39)] | 4.5 | 0.5 |
| SLNFEELKDWGPKNVIKMSTPAVNKMPHSFANLPLRF-NH2 [hRFRP-1-37 (peptide having the 56 (Ser) to 92 (Phe) amino acid sequence in SEQ ID NO: 1)] | 21 | – |
| SVTFQELKDWGAKKDIKMSPAPANKVPHSAANLPLRF (ends and bridges not checked) [rRFRP-1-37 (peptide having the 58 (Ser) to 94 (Phe) amino acid sequence in SEQ ID NO: 50)] | 30 | – |
